B1: HDV Ribozyme (parent)
chain: GGCCGGCAUGGUCCCAGCCUCCUCGCUGGCGCCGGCUGGGCAACAUUCCGAGGGGACCGUCCCCUCGGUAAUGGCGAAUGGGACCCA

The variants in this series derive from B1. Kind of series: self-cleavage, relative activity (ratio to wild type); higher = more cleavage; co-transcriptional.
For the variant C15U U79G, the self-cleavage was determined as 0.703.
Next, A16C A56U: 0.997; A16C A56G: 0.776.
For A16C A56C, the self-cleavage worked out at 0.639.
Turning to C15U C64U, the self-cleavage is 0.902.
As for C15G C30U, the self-cleavage is 0.145.
As for C15G C30A, the self-cleavage was 0.147.
Take C15G C61G: the self-cleavage was determined as 0.178.
As for C15G C61U, the self-cleavage is 0.434.
Next, C15U C62A: 1.08.
For the variant C15U C62U, the self-cleavage came out at 0.764.
Next, C15U A43C: 0.0594.
Next, C15G G53C: 0.598; C15G G53U: 0.724; A16C C19A: 0.277.
Next, A16C C19G: 0.0594; A16C G80A: 0.406; C15U G74U: 0.485.
As for C15U G74A, the self-cleavage is 0.383.
As for C15U G74C, the self-cleavage was 0.185.
Next, C15U C58A: 0.997; C15U C21A: 0; C15U C21U: 0.17.
C15G C84U: the self-cleavage amounted to 0.302.
Next, C15G C84G: 0.222; A16C C58U: 1.05.
Next, C15G U27A: 0.431; A16C G29A: 0.116; C15U G59A: 0.851.
Next, C15U G59C: 1.13.
As for A16C C18A, the self-cleavage turned out to be 0.0665.
Consider A16C C85U, for which the self-cleavage was 0.795.
As for A16C C85A, the self-cleavage came out at 0.875.
Next, A16C C85G: 0.95.
For C15G C62A, the self-cleavage came to 0.554.
Next, C15G C62G: 0.237.
For the variant C15U G81C, the self-cleavage was 0.317.
As to C15G G29U, the self-cleavage amounted to 0.
Next, A16C U69G: 0.923; A16C U69A: 0.767.
Next, A16C U69C: 0.739; C15G G52U: 0.684; C15U C49A: 0.623.
With A16C C24A, the self-cleavage amounted to 0.277.
Next, A16C C24G: 0.0692; A16C C24U: 0.287; C15G C32G: 0.145.
Next, C15G C32A: 0.158; C15G C86A: 0.712; C15U A78U: 0.185.
For C15G C18U, the self-cleavage is 0.0852.
Next, C15G C18A: 0.0997; C15G C18G: 0.0594.
Next, C15U G53U: 0.767; C15G G17C: 0.0875; C15G G17A: 0.133.
Next, A16C A77U: 0.199; A16C A77C: 0.266; C15U U65C: 0.674.
In the case of C15U U65G, the self-cleavage amounted to 0.914.
For the variant A16C A87C, the self-cleavage is 0.671.
As for A16C A87U, the self-cleavage was determined as 0.615.
Next, A16C G82C: 0.0755; A16G A43U: 0.623.
Turning to C15U A42U, the self-cleavage is 0.322.
For C15U A42C, the self-cleavage is 0.161.
Next, C15U A42G: 0.246; C15U A16U: 1.26.
On to C15U A45U, for which the self-cleavage was found to be 0.831.
Next, C15U A45G: 0.8; A16G A51G: 0.703; A16G A51U: 0.906.
Next, C15G A56U: 0.914.
Regarding A16C C61A, the self-cleavage was 0.332.
A16C C61G: the self-cleavage was 0.7.
A16G A45G: the self-cleavage is 0.772.
As to A16G A45U, the self-cleavage amounted to 0.712.
Next, C15G A71U: 0.489; C15G A71C: 0.222.
Next, C15G U72G: 0.128.
Next, C15G U72C: 0.119.
As to C15G C19A, the self-cleavage stood at 0.0831.
On to C15G C19U, for which the self-cleavage turned out to be 0.0898.
Next, A16C U46A: 0.262; A16C U46C: 0.511; A16C U46G: 0.332.
Turning to C15U C19A, the self-cleavage is 0.128.
For A16C U60G, the self-cleavage worked out at 0.939.
For the variant C15U C41U, the self-cleavage is 1.05.
Take C15U C41A: the self-cleavage was determined as 0.962.
For C15U A71C, the self-cleavage came to 0.467.
C15U A71G: the self-cleavage turned out to be 1.14.
Next, C15U C32U: 0.73; C15U C32A: 0.214.
For the variant C15U A87U, the self-cleavage is 0.993.
Next, C15U A87G: 1.05; C15G A77C: 0.128.
On to C15U C66G, for which the self-cleavage came out at 0.831.
Next, C15U C66U: 1.21; C15G U69G: 0.256.
C15G U69A: the self-cleavage was determined as 0.604.
Take C15U U37C: the self-cleavage was found to be 0.923.
Next, C15U U37A: 0.196.
As for C15G C26G, the self-cleavage worked out at 0.431.
In the case of C15G C26A, the self-cleavage came out at 0.332.
Consider C15G C26U, for which the self-cleavage turned out to be 0.623.
Next, A16C A71C: 0.492; A16C C57G: 0.646; C15G A70U: 0.415.
Next, A16C A43U: 0.0831; C15G U79A: 0.312.
For the variant C15U G52A, the self-cleavage was 0.863.
Next, C15U U20C: 0.
Next, C15U U20G: 0.166; C15U U20A: 0.0692; C15G G39C: 0.0723.
Next, C15G G39A: 0.341.
Take C15G G38A: the self-cleavage is 0.
Next, C15G G38C: 0.0639; C15G G31C: 0.178.
With C15G G31U, the self-cleavage amounted to 0.135.
For C15U U27G, the self-cleavage is 0.511.
Next, C15U U27A: 0.63; A16C A45U: 0.332; A16C A45C: 0.35.
As to A16C A45G, the self-cleavage stood at 1.05.
Next, A16C C44A: 0.289.
Next, A16C C44G: 0.317; A16C C44U: 0.35.
Next, C15U C24G: 0; C15U C24A: 0.482; C15G C44A: 0.237.
C15G C44U: the self-cleavage worked out at 0.434.
In the case of A16C G68A, the self-cleavage turned out to be 0.649.
For C15U C85G, the self-cleavage amounted to 0.831.
Next, C15U G55U: 0.729.
Take A16C G38A: the self-cleavage was found to be 0.0504.
For A16C G38U, the self-cleavage turned out to be 0.287.
As to C15U U72C, the self-cleavage amounted to 0.598.
Next, C15U G38U: 0.259.
Next, C15U G38A: 0.188; C15U G38C: 0.17; C15G G80C: 0.88.
Next, C15G G80U: 0.73.
With C15G G80A, the self-cleavage was 0.635.
For A16C G35C, the self-cleavage worked out at 0.175.
In the case of A16C G35A, the self-cleavage was 0.175.
On to A16C G35U, for which the self-cleavage was 0.107.
For C15U U60C, the self-cleavage was determined as 0.969.
As for C15U U60G, the self-cleavage turned out to be 0.554.
Next, C15U U60A: 1.15.
Next, C15U G28U: 0.227; C15U G28C: 0.0405; C15G C49A: 0.519.
Regarding C15G C49G, the self-cleavage amounted to 0.499.
With C15U G68C, the self-cleavage was 0.597.
Next, A16C U20A: 0.
Regarding A16C U20C, the self-cleavage was 0.277.
Consider C15U A77G, for which the self-cleavage amounted to 1.14.
As to C15G G68U, the self-cleavage was determined as 0.369.
In the case of C15G G68A, the self-cleavage worked out at 0.525.
As for C15G G50A, the self-cleavage was determined as 0.723.
Next, C15G C24G: 0.196.
C15U U23A: the self-cleavage turned out to be 0.831.
Next, C15U U23C: 1.11; C15U U23G: 0.415.
With C15U G40C, the self-cleavage was 0.249.

The record behind these values is the RNAGym collection of RNA variant scans (doi:10.7554/elife.80360).
